Source: PMC11467180

Target: rA3GR8/E259A (Macaca mulatta (rhesus macaque), UniProt M1GSK9 1-138+=AEAG+147-383, E259A;internal_change)
Test: EMSA

B1: AA-DNA 10 nt (ssDNA)
DNA: TTTTAATTTT
Kd: 318 ± 64 nM

B2: GA-DNA 10 nt (ssDNA)
DNA: TTTTGATTTT
Kd: 473 ± 95 nM
